Source: the supplement of paper PMC10567573
± gives the standard deviation.

Test: protein stability index of a GFP-peptide fusion (GPS, HEK-293T) (PSI 1-6); higher = more stable
[1] = treatment: DMSO, c terminus: a fixed tail appended
[2] = treatment: MLN4924 1 uM, 8 h, c terminus: a fixed tail appended
[3] = treatment: DMSO, c terminus: native
[4] = treatment: MLN4924 1 uM, 8 h, c terminus: native
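Note: 24-mer peptide tiles fused after GFP, lentivirally expressed, FACS-sorted into six equal bins by GFP/DsRed ratio, decoded by Illumina sequencing, PSI is the read-weighted mean bin number.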

Sequence	protein stability index [1]	protein stability index [2]	protein stability index [3]	protein stability index [4]
KAVNDETCKASHITSSVFPSASLG [FBXO34]	3.66 ± 0.2	3.61 ± 0.18	–	–
IILTNQSVREVTQIKCIELKSELG [P2RY14]	2.14 ± 0.23	2.27 ± 0.19	–	–
TVVGVPSGKVSSSSSSLGNKLQTL [ZC2HC1A]	3.56 ± 0.34	3.73 ± 0.29	–	–
FMLLLIFFAFLHCWLNAFAEMLRF [SOAT2]	3.07 ± 0.18	2.88 ± 0.57	–	–
LRQLVESDINSLRRILDELTLCRS [KRT33B]	2.31 ± 0.14	2.41 ± 0.15	–	–
AEAERLDVKAMGPLVLTEVLFNEK [EIF5]	4.01 ± 0.2	4.17 ± 0.24	–	–
KCQVGFSSSDLVMRARDSVYHIEC [ISL2]	1.99 ± 0.36	2.3 ± 0.31	–	–
LLTGQCDFGSNCRFSHMSERDLQE [ZMAT5]	2.67 ± 0.21	2.78 ± 0.17	–	–
LRLCAWGLASWPLARGIHVAGILS [POMT2]	2.3 ± 0.26	2.22 ± 0.2	–	–
RPGGGRVKIESVKLDFKEKAQAKV [MAP2]	4.06 ± 0.3	4.01 ± 0.25	–	–
DALSSPTSVQEADETTRSDISERP [C2CD2L]	5.64 ± 0.35	5.61 ± 0.24	–	–
PSKVEVTEKTTTVLSESSGPSNTS [C2CD2L]	5.43 ± 0.095	5.44 ± 0.23	–	–
ELDELLKEISRKRRSIRYGREVEL [PTPRD]	2.5 ± 0.68	2.96 ± 0.61	–	–
EQRANDLEQIMESVKSKIGELEDE [CEP70]	5.41 ± 0.098	5.39 ± 0.18	–	–
NHGQVVSYLLKSGADKEILTTKGE [ANKRD40]	4.08 ± 0.28	3.9 ± 0.26	–	–
QEIMEKYNIKLKWTNQQKLYSRTG [CFHR2]	2.45 ± 0.32	2.66 ± 0.35	–	–
APGRPGHPSGHWATCRLCGEQVGR [ZBED3]	2.331 ± 0.015	2.81 ± 0.41	–	–
IKKPESFSKQIVLRGKSIKRAPGE [NEUROD6]	3.9 ± 0.12	4 ± 0.22	–	–
ARAEAEQMAKKAEAFQLYQEAAQL [FLOT1]	4.49 ± 0.17	4.52 ± 0.3	–	–
STRLTRIHLREDLVQDQDLEAIRK [ZER1]	4.67 ± 0.079	4.7 ± 0.14	–	–
IIWFSFELVVRFFACPSKTDFFKN [KCNA1]	2.88 ± 0.37	3.04 ± 0.36	–	–
QQLRRGRYVEFNLLYDRGTKFGLF [CPOX]	2.52 ± 0.51	2.56 ± 0.36	–	–
CAAVLPGKPGDRNCPEFPPPDRTL [RSPH3]	4.16 ± 0.42	3.76 ± 0.16	–	–

Sequence	protein stability index [1]	protein stability index [2]	protein stability index [3]	protein stability index [4]
WGGAPKEGSIWRGAQMEKEWARAL [ZSWIM9]	2.8 ± 0.28	2.75 ± 0.25	–	–
IWFIVPISCVICNDIMAYMFGFFF [CDS2]	3.19 ± 0.25	3.11 ± 0.61	–	–
ILLQDHIRDLDVVVVSVAGAFRKG [ATL3]	2.94 ± 0.34	2.57 ± 0.68	–	–
LDKQMSRDEHRARAMKIPFTNDKI [NFE2L1]	4.13 ± 0.32	4.28 ± 0.25	–	–
SNYYVAHPPVTYSQPYPTWLPCN [TENT5C]	–	–	3.25 ± 0.19	3.44 ± 0.68
AIEIFRYSFYMLTCIDMDWKVLTW [HACD3]	3.23 ± 0.4	2.57 ± 0.53	–	–
SQHCKPEEGLEARGEALGLVGAQA [MAGEA3]	4.73 ± 0.2	4.73 ± 0.22	–	–
FMLLTQARLFDEPQLASLCLDTID [BTBD1]	2.29 ± 0.52	2.34 ± 0.48	–	–
DANLLNDRVLRAMLKAEETCAPSV [CCND1]	3.33 ± 0.34	3.61 ± 0.23	–	–
KGELAPELGEEPQPRDEEEAELEL [POLD4]	5.44 ± 0.23	5.69 ± 0.13	–	–
GQCGENLAWASYDQTGKEVADRWY [GLIPR2]	2.68 ± 0.31	3.13 ± 0.26	–	–
IVEKRVLAHLAPLFDNPKLDKELR [INTS3]	2.13 ± 0.2	2.13 ± 0.37	–	–
TNRVKECLAKGTFSDVTFILDDGT [RHOBTB2]	3.52 ± 0.16	3.63 ± 0.18	–	–
KHAKKEREESLPNLLQYVRMPLLT [KLHL12]	3.26 ± 0.26	3.28 ± 0.16	–	–
AAAAKAFKHPSIRNPVSLVVTRLV [ADAMTS4]	2.22 ± 0.49	2.67 ± 0.48	–	–
RNTGAYTSSGLATASFRTSKYLLE [TEKT4]	3.1 ± 0.26	3.16 ± 0.22	–	–
KTFYKTADISQMLVCTADGDIHLS [TAF7L]	2.47 ± 0.19	2.41 ± 0.34	–	–
RNGHLATVKLLVEEKADVLARGPL [RIPK4]	3.1 ± 0.4	3.44 ± 0.19	–	–
NSGTDQEQIHLLLSSQCFSNISRP [M1AP]	2.98 ± 0.21	3.18 ± 0.27	–	–
DFWLNMAALTEALQRQAEQNPTAS [FCHO1]	2.51 ± 0.21	2.47 ± 0.35	–	–
LAALSATISFRIYKSVLQAVQKTD [RTN1]	2.53 ± 0.76	2.28 ± 0.54	–	–
QKTRLLEDSVSRLEKEIEVLERGD [PALM]	4.96 ± 0.069	5.03 ± 0.27	–	–
FSTWNLDHIIEKKRTIIPTLVEAI [DFFB]	2.44 ± 0.45	2.55 ± 0.34	–	–

Sequence	protein stability index [1]	protein stability index [2]	protein stability index [3]	protein stability index [4]
PSVCSENIHPQVLLPDQARGEVPW [ZNF263]	4.19 ± 0.22	4.34 ± 0.37	–	–
GGGTPSLASPHTVAAVLEAVAQTA [RSAD1]	3.46 ± 0.52	3.54 ± 0.3	–	–
GKGRTASPINSPARGTPSPKRMPS [FSD1]	5.13 ± 0.25	5.05 ± 0.32	–	–
LERGRASLIFSLKNEVGGLIKALK [TPH1]	3.37 ± 0.36	2.36 ± 0.61	–	–
ETPEWLDSDSCQKCDQPFFWNFKQ [WDFY2]	2.94 ± 0.29	3.19 ± 0.11	–	–
LDLLLDMPPVSYDVQLLHSWNNND [SPSB1]	2.66 ± 0.32	2.65 ± 0.23	–	–
TLGKVLKVIVVMRSLFIDRTIVKG [MED27]	3.01 ± 0.66	2.74 ± 0.97	–	–
QSVKMKDKLKIDLLPDGRHAVVEV [TAF7L]	2.87 ± 0.32	3.06 ± 0.36	–	–
IRERATIEETYSKAMAKLSKLASN [FCHO1]	3.02 ± 0.19	2.91 ± 0.3	–	–
GGFGGGFAGGFVDFGACDGGLLTG [KRT13]	2.71 ± 0.084	3.12 ± 0.25	–	–
GVIQSVIGWKTVRMYPFQIHSIAL [CDS2]	2.81 ± 0.34	2.94 ± 0.35	–	–
MAMYWGTSRWSSMEIMEAYSVARQ [KCNAB2]	2.43 ± 0.52	2.06 ± 0.43	–	–
HPDSWRAYPFYWAWLPQAKVPFSQ [PI4K2A]	2.5 ± 0.37	2.02 ± 0.94	–	–
LTLVLVASVLLQAVLYPRFMGTIS [CD207]	2.99 ± 0.28	3.25 ± 0.45	–	–
FKLKESCVRRRYSDFEWLKNELER [SNX12]	2.33 ± 0.21	2.59 ± 0.26	–	–
LLISCAVSYRGAWWYRNCHYANLN [TNXB]	2.97 ± 0.19	2.99 ± 0.72	–	–
GEKPYKCTHCSKSFRQRAGLIMHQ [ZNF449]	3.59 ± 0.46	3.75 ± 0.27	–	–
DCMAALGLAYDRKKVSKAAILARI [SCD]	1.94 ± 0.3	2.29 ± 0.2	–	–
KEQDGREVDWEYFYGLLFTSENLK [DFFB]	2.617 ± 0.019	2.93 ± 0.01	–	–
EPTAAATARRSKRERREEDRAPAE [PWWP2B]	5.7 ± 0.095	5.45 ± 0.14	–	–
EKLGSGEPSHSVKVHTVPKPGKGA [ATE1]	5.04 ± 0.23	5 ± 0.22	–	–
VLLLGSVDGRHLLRTLSRAKFWPR [DNAAF3]	2.08 ± 0.36	2.27 ± 0.15	–	–
AEPLKEDKPVTGPRNKTENGLTPK [ATF6]	5.5 ± 0.26	5.35 ± 0.18	–	–

Sequence	protein stability index [1]	protein stability index [2]	protein stability index [3]	protein stability index [4]
SRGYRNHRSSRETRDYAPPSRGHA [RBMY1A1]	4.63 ± 0.3	4.63 ± 0.4	–	–
CMSFNPETRRLSIGLDNGTISEFI [WDFY2]	2.42 ± 0.56	2.89 ± 0.38	–	–
EYDVYSTFQSHEPEFDYLKSLEIE [PPP2R2C]	4.33 ± 0.17	4.3 ± 0.078	–	–
VGPWLGQLQELLHHCDDHLSLYQL [RSAD1]	2.25 ± 0.45	2.6 ± 0.55	–	–
IWAKTPPITRKAAQLYTLWVTFQV [DHCR7]	3.3 ± 0.52	2.81 ± 0.6	–	–
VAWHPVRPIIASISSGVVSIWAQN [RBBP5]	2.48 ± 0.48	2.5 ± 0.39	–	–
LAVAVPAVTSADSQFSQTTQAGS [LYSMD4]	–	–	3.91 ± 0.64	3.96 ± 0.32
RFVFADRERKKLVLENLEDSCVLT [TRIB3]	3.18 ± 0.16	3.37 ± 0.17	–	–
TLNIKETDSKELSMAKEVIAKELS [ZBED1]	3.87 ± 0.086	4.13 ± 0.12	–	–
GHVEVARLLLDSGAQVNMPADSFE [ANKRD17]	3.88 ± 0.091	3.83 ± 0.24	–	–
EFHPHHCNTFVYSSSKGTIRLCDM [PPP2R2B]	2.31 ± 0.29	2.15 ± 0.18	–	–
IQQTTRYFSTPQTMDLFLNYSMNM [NANOGP8]	2.7 ± 0.48	2.58 ± 0.58	–	–
GAVYADSGNFERCIRLWKYALDMQ [FEM1A]	2.38 ± 0.14	2.24 ± 0.38	–	–
AFVRMKQLIEEGYVGEPLVCEVQV [GFOD1]	2.47 ± 0.77	2.55 ± 0.71	–	–
CRPLQFQPSKSHKKVLKKMLKFLA [ATE1]	–	3.43 ± 0.17	–	–
KEGRPGIPGLPGLRGLPGERGTPG [SCARA5]	4.21 ± 0.41	4.43 ± 0.24	–	–
QELLERGLLQLDHRGLRCSWEGLA [RSAD1]	2.31 ± 0.2	2.6 ± 0.23	–	–
DAWSGSNAYHIERLMSFRPICSAN [CRYBA1]	2.46 ± 0.26	2.55 ± 0.26	–	–
KIKSEEIEITFSYWDGSGHRRTVK [FAM50A]	2.27 ± 0.21	2.43 ± 0.16	–	–
SRELSLRPSRSGAQQLEEEGPMEE [EID1]	5.58 ± 0.29	5.64 ± 0.12	–	–
